Paper PMC11357561, “Efficient 2,3-Butanediol Production from Ethanol by a Modified Four-Enzyme Synthetic Biosystem” (Molecules, 2024)

Experiments:
Test in all cases: acetoin formation, Voges-Proskauer test, Michaelis-Menten fit
Settings in all cases: 100 mM phosphate pH 8.0, 0.1 mM TPP, 1 mM Mg2+, 2-600 mM acetaldehyde
formolase (FLS) [1] = biological target: T1, formolase (FLS) (Pseudomonas fluorescens, UniProt Q9F4L3, A28I/W89R/L90T/R188H/A394G/G419N/A480W); format: biochemical
T1 construct: gene bznB; computationally designed formolase derived from benzaldehyde lyase; pET28a, E. coli BL21(DE3), Ni-NTA His-tag purified
T1 sequence (Q9F4L3 1-563 A28I/W89R/L90T/R188H/A394G/G419N/A480W): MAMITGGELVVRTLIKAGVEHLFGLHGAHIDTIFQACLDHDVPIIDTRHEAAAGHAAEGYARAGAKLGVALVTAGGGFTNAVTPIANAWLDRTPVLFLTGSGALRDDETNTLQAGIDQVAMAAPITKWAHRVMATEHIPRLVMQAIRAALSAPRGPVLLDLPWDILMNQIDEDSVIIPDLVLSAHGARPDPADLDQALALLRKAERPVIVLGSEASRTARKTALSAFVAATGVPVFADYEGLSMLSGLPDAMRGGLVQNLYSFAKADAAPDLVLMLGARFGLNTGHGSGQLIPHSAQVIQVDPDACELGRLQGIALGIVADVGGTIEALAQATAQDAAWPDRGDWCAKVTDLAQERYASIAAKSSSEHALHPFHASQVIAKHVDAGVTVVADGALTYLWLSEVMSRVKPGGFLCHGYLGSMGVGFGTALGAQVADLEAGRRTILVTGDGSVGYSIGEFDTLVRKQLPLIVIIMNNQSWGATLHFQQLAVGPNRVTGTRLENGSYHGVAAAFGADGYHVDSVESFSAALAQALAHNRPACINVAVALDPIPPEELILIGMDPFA
Text: (§1) acetoin formation, Voges-Proskauer test, Michaelis-Menten fit on formolase (FLS)

formolase (FLS) [2] = biological target: T2, formolase (FLS) (Pseudomonas fluorescens, UniProt Q9F4L3, A28I/W89R/L90T/R188H/A394G/G419N/A480W/L482E); format: biochemical
T2 construct: gene bznB; computationally designed formolase derived from benzaldehyde lyase; pET28a, E. coli BL21(DE3), Ni-NTA His-tag purified
T2 sequence (Q9F4L3 1-563 A28I/W89R/L90T/R188H/A394G/G419N/A480W/L482E): T1 sequence (Q9F4L3 1-563 A28I/W89R/L90T/R188H/A394G/G419N/A480W)
Text: as §1

CC=O = system: T3, CC=O; format: biochemical, Pseudomonas fluorescens
T3 construct: computationally designed formolase derived from benzaldehyde lyase; pET28a, E. coli BL21(DE3), Ni-NTA His-tag purified
Text: as §1

Molecule | Km (formolase (FLS) [1]) [mM] | Km (formolase (FLS) [2]) [mM] | Km (CC=O) [mM] | kcat (CC=O) [s⁻¹] | kcat/Km (CC=O) [M⁻¹ s⁻¹]
CC=O [acetaldehyde] | 58.5 ± 2.32 | 50.9 ± 3.22 |  |  | 
formolase (FLS) (Pseudomonas fluorescens; A28I/A394G/A480W/F484A/G419N/L90T/R188H/W89R) |  |  | 53.28 ± 2.52 | 1.74 ± 0.12 | 32.6
formolase (FLS) (Pseudomonas fluorescens; A28V/A394G/A480W/G419N/L90T/R188H/W89R) |  |  | 81.95 ± 3.61 | 3.33 ± 0.21 | 40.6
